According to patent US9817004B2, “Development and use of cysteine-labeled fluorescent probes of unbound analytes” (priority 2008, dated 2017):
Positions count from the first letter of the chain named. Names may count otherwise.

Experiments:
[1] = Fluorescence emission spectra with increasing oleic acid; assay type: binding; details: acrylodan labeled; 22° C., Ex=386 nm
Description: FIGS. 1A-1C show Fluorescence spectra with increasing oleic acid at 22° C. Ex=386 nm.
This is an example of the type of fluorescence response that is a necessary characteristic of a probe. […] This example illustrates that altering specific sites can yield effective probes.

[2] = I-FABP mutants labeled with acrylodan; from U.S. Pat. No. 5,470,714; cited from earlier work
[3] = Bilirubin binding isotherm of dual fluorophore ratio probes (I608/I525)
Excerpt: FIGS. 7A-7B show Bilirubin binding isotherms for two dual fluorophore bilirubin ratio probes synthesized by labeling with acrylodan and Texas red.
Because such fluorescent proteins may have other valuable characteristics it would be important to be able to convert such fluorescent proteins into probes, i.e. so that they respond to analyte binding by a change in ratio. This can be accomplished by introducing a second but different fluorophore at a different site so that either the fluorescence of the second fluorophore is insensitive or responds differently to analyte binding. In addition, the fluorescence index of second fluorophore should be measured at a distinct wavelength from the first fluorophore. […] To convert this to a fluorescence ratio probe, site specific mutagenesis was used to generate a new mutein (L2P14F7-MGCFD) in which the N-terminal alanine residue of the mature L2P14F7 mutein was replaced with glycine-cysteine. Thus, the N-terminus of the mature L2P14F7-MGCFD mutein has the sequence glycine-cysteine-phenylalanine-aspartate instead of alanine-phenylalanine-aspartate, as in the L2P14F7 template. This substitution is designated in the clone name as “MGCFD” and is sometimes described as an “N-terminal MGCFD linker”. Then L2P14F7-MGCFD was reacted with Texas Red (TR) maleimide at pH 6 under which conditions only the cysteine was labeled. […]

B1: V26C K27A: SEQ ID NO:2 with lysine 27 mutated to alanine, valine 26 to cysteine, cysteine labeled with acrylodan (protein, listed as Rattus norvegicus)
chain: AFDGTWKVDRNENYEKFMEKMGINVCARKLGAHDNLKLTITQEGNKFTVKESSNFRNIDVVFELGVDFAYSLADGTELTGTWTMEGNKLVGKFKRVDNGKELIAVREISGNELIQTYTYEGVEAKRIFKKE
modifications: acrylodan label on cysteine 26; PEPTIDE (1)...(131) wild-type rat intestinal fatty acid binding protein; …ON (1)...(1)
[1]
  fluorescence response upon FFA binding (spectral shift / ratio response): yields a ratio response upon FFA binding

B2: Thr83Cys: I-FABP mutant Thr83Cys labeled with acrylodan (Kleinfeld '714) (protein, UniProt P02693 2-132, looked up, variant T83C)
Fatty acid-binding protein, …: B1 chain with C26V, A27K, T83C
modifications: acrylodan label
[2]
  fluorescence response to FFAu binding: unresponsive to FFAu binding

B3: Thr81Cys: I-FABP mutant Thr81Cys labeled with acrylodan (Kleinfeld '714) (protein, UniProt P02693 2-132, looked up, variant T81C)
Fatty acid-binding protein, …: B1 chain with C26V, A27K, T81C
modifications: acrylodan label
[2]
  fluorescence response to FFAu binding: unresponsive to FFAu binding

B4: K27C: lysine 27 of SEQ ID NO:2 mutated to cysteine and the cysteine labeled with acrylodan (protein, listed as Rattus norvegicus)
chain: B1 chain with C26V, A27C
modifications: acrylodan label at C27; PEPTIDE (1)...(131) wild-type rat intestinal fatty acid binding protein; …ON (1)...(1)
[1]
  fluorescence response upon FFA binding (spectral shift / ratio response): without the necessary spectral shift to yield a ratio probe

B5: L2P14F7: bilirubin specific fluorescent protein, the M18G,G31M mutation of SEQ ID NO 4, labeled with acrylodan at lysine 27 (protein, listed as Rattus norvegicus)
chain: AFDGTWKVDRNENYEKFGEKMGINVVKRKLMAHDNLKLTITQEGNKFTVKESSNFRNIDVVFELGVDFAYSAADGTELTGTWTMEGNKLVGKFKRVDNGKELIAVREISGNELIQTYTYEGVEAKRIFKKDRGHHHHHH
modifications: acrylodan label at lysine 27; MUTAGEN (72)...(72) rat intestinal fatty acid binding protein with alanine substitution for leucine at position 72 and Glu 131 to Asp subsitition.; COOH-terminal affinity tag comprising Arg132, Gly133 and 6 histidines
[3]; labeled with acrylodan at lysine 27
  analyte specificity: bilirubin specific
[3]; single site equilibrium binding, ratio I608/I525, excited at 375 nm
  Kd: ~80 nM
